Assay [1] addresses T1, soluble human CD3 epsilon chain (human, UniProt P07766 23-126).
T1 construct: also called CD3ε
Description: SPR, human CD3 on the chip. Here is the method:
(§1) The activity to bind human CD3 when using hCE115HA (SEQ ID NO: 52) as the H chain variable region and L0000 (SEQ ID NO: 53) as the L-chain variable region was evaluated. This was performed using the molecular form of a single-arm antibody having a single Fab at the Fc region of a human IgG1 heterodimerized by the knobs-into-hole technique.
(§2) The affinity and binding rate constants of an anti-CD3 antibody for an antigen were measured by the single-cycle kinetics method of a surface plasmon resonance assay using Biacore™-T200 (GE Healthcare Japan). HBS-EP+(GE Healthcare Japan) was used for the running buffer, and an amine coupling kit (GE Healthcare Japan) was used to covalently bind human CD3 to the CM4 chip (carboxymethyl dextran-coated chip). The anti-CD3 antibody used as the analyte was prepared at 5 and […] using HBS-EP+. Measurements were carried out by first injecting each of the 5- and 20-g/mL anti-CD3 antibody solutions for three minutes continuously at a flow rate of 20 L/min to allow reaction to take place. Then, the solution was switched to HBS-EP+ and the dissociation phase was measured for 3 minutes. After completion of the dissociation phase measurement, the sensor chip was regenerated by washing with 10 mM Gly-HCl at pH 1.5. Measurement at the concentration of 0 was carried out by performing each of the three-minute HBS-EP+ injections twice successively to allow reaction to take place, and then switching to HBS-EP+ to measure the dissociation phase for 3 minutes. After completion of the dissociation phase measurement, the sensor chip was regenerated by washing with 10 mM Gly-HCl at pH 1.5. A data analysis software exclusively for Biacore, Biacore T200 Evaluation Software Version 1.0, was used to perform kinetic analyses to calculate the binding rate constant (ka), dissociation rate constant (kd), and the rate constant ratio from the obtained sensorgrams.

Assay [2] deals with human CD3 (soluble human CD3ε chain) (Homo sapiens, UniProt P07766). The assay can be described thus: Affinity for human CD3 by surface plasmon resonance (Biacore T200). It is filed as binding. The conditions noted are these: for Kd: soluble human CD3ε chain, Table 12. Here is the method:
as §1, §2
(§3) CDR and FR were determined according to the Kabat definition (Kabat numbering).
First, point mutations were introduced into FR1, FR2, FR3, CDR1, CDR2, and CDR3 of the humanized anti-human CD3ε chain antibody sequence produced in Reference Example 2, hCE115HA-ERY27_HE (SEQ ID NO: 55), to prepare modified antibodies. Next, the affinity of these modified antibodies for the soluble human CD3ε chain was determined.

The target of a further assay is human GPC3 (Homo sapiens, UniProt P51654). The assay can be described thus: Affinity for human GPC3 by surface plasmon resonance (Biacore T200). It is filed as binding. The settings on record: single-arm antibody; multi-cycle kinetics. The method, then: The activity to bind human GPC3 when using GL4 (SEQ ID NO: 41) and L0000 (SEQ ID NO: 53) as the L-chain variable regions was evaluated. This was performed using the molecular form of a single-arm antibody having a single Fab at the Fc region of a human IgG1 heterodimerized by the knobs-into-hole technique. H0000 (SEQ ID NO: 40) was used for the anti-GPC3 antibody H-chain variable region.
The affinity and binding rate constants of an anti-GPC3 antibody for an antigen were measured by the multi-cycle kinetics method of a surface plasmon resonance assay using Biacore™-T200 (GE Healthcare Japan). HBS-EP+(GE Healthcare Japan) was used for the running buffer, and an amine coupling kit (GE Healthcare Japan) was used to covalently bind Protein A/G to the CM5 chip (carboxymethyl dextran-coated chip). Each anti-GPC3 antibody was prepared so that approximately 100 RU will be captured by Protein A/G. Human GPC3 used as the analyte was prepared at 8, 16, 32, 64, and 128 nM using HBS-EP+. Measurements were carried out by first allowing Protein A/G to capture the antibody solution, and then injecting the human GPC3 solution at a flow rate of […] for three minutes to allow reaction to take place. Then, the solution was switched to HBS-EP+ and the dissociation phase was measured for 15 minutes. After completion of the dissociation phase measurement, the sensor chip was regenerated by washing with 10 mM Gly-HCl at pH 1.5. Measurement at the concentration of 0 was similarly carried out by allowing Protein A/G to capture the antibody solution, performing a three-minute HBS-EP+ injection to allow reaction to take place, and then switching to HBS-EP+ to measure the dissociation phase for 15 minutes. […]
as §3
First, point mutations were introduced into CDR1, CDR2, and CDR3 of the anti-human GPC3 bispecific antibody sequence produced in Reference Example 2, H0000-ERY27_HK (SEQ ID NO: 54), to prepare modified antibodies. Next, the affinity of these modified antibodies for soluble human GPC3 was determined.

The mark [3] stands for this setting: single-arm antibody, single-cycle kinetics.

These results are taken from patent US20250066503A1, “CELL INJURY INDUCING THERAPEUTIC DRUG FOR USE IN CANCER THERAPY” (CHUGAI SEIYAKU KABUSHIKI KAISHA, priority 2016, published 2025).

T1 sequence (P07766 23-126 limits assumed): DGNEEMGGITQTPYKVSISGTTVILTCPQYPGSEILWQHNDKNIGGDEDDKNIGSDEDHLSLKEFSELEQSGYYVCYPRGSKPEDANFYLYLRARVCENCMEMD
human CD3 (soluble human CD3ε chain), sequence (P07766 23-126 limits assumed): as above
human GPC3, sequence (P51654 25-563 limits assumed): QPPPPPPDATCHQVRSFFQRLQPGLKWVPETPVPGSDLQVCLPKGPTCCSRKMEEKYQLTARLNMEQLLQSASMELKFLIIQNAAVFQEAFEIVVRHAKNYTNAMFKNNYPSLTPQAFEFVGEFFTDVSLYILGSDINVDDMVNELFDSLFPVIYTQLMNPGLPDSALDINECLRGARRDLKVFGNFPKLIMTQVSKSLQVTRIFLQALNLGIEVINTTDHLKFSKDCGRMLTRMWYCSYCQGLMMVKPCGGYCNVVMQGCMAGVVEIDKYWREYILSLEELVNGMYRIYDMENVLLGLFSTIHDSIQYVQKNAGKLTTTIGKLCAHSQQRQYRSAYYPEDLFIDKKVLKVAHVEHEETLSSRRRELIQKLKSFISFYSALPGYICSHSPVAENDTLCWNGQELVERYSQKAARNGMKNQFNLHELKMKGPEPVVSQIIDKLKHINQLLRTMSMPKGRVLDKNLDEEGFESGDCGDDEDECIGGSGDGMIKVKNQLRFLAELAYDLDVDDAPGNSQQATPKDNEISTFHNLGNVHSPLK

B1: rCE115H/rCE115L single-arm antibody (antibody, human IgG1, V domains shown)
VH: EVQLVETGGSLVQPGKSLKLTCATSGFTFSNAWMHWVRQSPEKQLEWVAQIKAKSNNYATYYAESVKGRFTISRDDSKSNIYLQMNSLKEEDTAVYYCRYVHYGAYYGVDAWGQGTSVTVSS
VL: DVVMTQTPVSMSVSLGGQVSISCRSSQSLVHNNGNTYVSWYIQKPSQSPQLLIYKVSNRFSGISDRFSGSGSGTDFTLKISRVEPDDLGVYYCGQGTQDPYTFGAGTKLELK
notes: single Fab on human IgG1 Fc heterodimerized by knobs-into-hole; also called rCE116H/rCE115L
In assay [1], B1 returned a dissociation constant (Kd) of 100 nM, an off-rate constant (koff) of 0.006 s⁻¹ and a kon of 59000 M⁻¹ s⁻¹. Besides, in assay [2] (setting [3]), the “Affinity for human CD3 ka” value amounted to 59000 M⁻¹ s⁻¹ and the “Affinity for human CD3 kd” value was determined as 0.006 s⁻¹.

B2: H0000/GL4: single-arm anti-GPC3 antibody, H0000 (SEQ ID NO: 40) with GL4 (SEQ ID NO: 41) (antibody, V domains shown)
VH: QVQLVQSGAEVKKPGASVKVSCKASGYTFTDYEMHWIRQPPGQGLEWIGAIDPKTGDTAYSQKFKGRVTLTADKSTSTAYMELSSLTSEDTAVYYCTRFYSYTYWGQGTLVTVSS
VL: DIVMTQSPLSLPVTPGEPASISCRSSQSLVHSNRNTYLHWYQQKPGQAPRLLIYKVSNRFSGVPDRFSGSGSGTDFTLKISRVEAEDVGVYYCSQNTHVPPTFGQGTKLEIK
modifications: An artificially generated sequence
B2: in the assay with human GPC3, the “Affinity for human GPC3 ka” value is 430000 M⁻¹ s⁻¹ and the “Affinity for human GPC3 kd” value amounted to 0.0018 s⁻¹.

B3: CE115HA122-E22Hh//-Hi-Kn010G3/L0000-k0: modified anti-CD3 antibody (antibody)
heavy: QVQLVESGGGVVQPGRSLRLSCAASGFTFSNAWMHWVRQAPGKGLEWVANIKAKSNNYATYYAESVKGRFTISRDDSKNSLYLQMNSLKTEDTAVYYCRYVHYGAYYGVDAWGQGTTVTVSSASTKGPSVFPLAPSSKSTSGGTAALGCLVKDYFPEPVTVSWNSGALTSGVHTFPAVLQSSGLYSLSSVVTVPSSSLGTQTYICNVNHKPSNTKVDKKVEPKSCDKTHTCPPCPAPEAAGGPSVFLFPPKPKDTLMISRTPEVTCVVVDVSHEDPEVKFNWYVDGVEVHNAKTKPREEQYASTYRVVSVLTVLHQDWLNGKEYKCKVSNKALPAPIEKTISKAKGQPREPQVYTLPPSRCELTKNQVSLSCAVKGFYPSDIAVEWESNGQPENNYKTTPPVLDSDGSFFLVSKLTVDKSRWQQGNVFSCSVMHEALHNHYTQKSLSLSPDYKDDDDK
light: DIVMTQSPLSLPVTPGEPASISCRSSQSLVHSNRNTYLHWYQQKPGQAPRLLIYKVSNRFSGVPDRFSGSGSGTDFTLKISRVEAEDVGVYYCGQGTQVPYTFGQGTKLEIKRTVAAPSVFIFPPSDEQLKSGTASVVCLLNNFYPREAKVQWKVDNALQSGNSQESVTEQDSKDSTYSLSSTLTLSKADYEKHKVYACEVTHQGLSSPVTKSFNRGEC
The molecule B3 gave a dissociation constant (Kd) in assay [2] of 42.8 nM.

B4: antibody-6: anti-human CD3ε chain and anti-human GPC3 bispecific antibody (antibody)
heavy: QVQLVESGGGVVQPGRSLRLSCAASGFTFSNAWMHWVRQAPGKGLEWVANIKAKSNNYATYYAESVKGRFTISRDDSKNSLYLQMNSLKTEDTAVYYCRYVHYGAYYGVDAWGQGTTVTVSSASTKGPSVFPLAPSSKSTSGGTAALGCLVKDYFPEPVTVSWNSGALTSGVHTFPAVLQSSGLYSLSSVVTVPSSSLGTQTYICNVNHKPSNTKVDKKVEPKSCDKTHTCPPCPAPEAAGGPSVFLFPPKPKDTLMISRTPEVTCVVVDVSHEDPEVKFNWYVDGVEVHNAKTKPREEQYASTYRVVSVLTVLHQDWLNGKEYKCKVSNKALPAPIEKTISKAKGQPREPQVYTLPPSRCELTKNQVSLSCAVKGFYPSDIAVEWESNGQPENNYKTTPPVLDSDGSFFLVSKLTVDKSRWQQGNVFSCSVMHEALHNHYTQKSLSLSPDYKDDDDK
light: DIVMTQSPLSLPVTPGEPASISCRSSQSLVHSNRNTYLHWYQQKPGQAPRLLIYKVSNRFSGVPDRFSGSGSGTDFTLKISRVEAEDVGVYYCGQGTQVPYTFGQGTKLEIKRTVAAPSVFIFPPSDEQLKSGTASVVCLLNNFYPREAKVQWKVDNALQSGNSQESVTEQDSKDSTYSLSSTLTLSKADYEKHKVYACEVTHQGLSSPVTKSFNRGEC
chain 1: DIVMTQSPLSLPVTPGEPASISCRSSQSLVHSNRNTYLHWYQQKPGQAPRLLIYKVSNRFSGVPDRFSGSGSGTDFTLKISRVEAEDVGVYYCSQNTHVPPTFGQGTKLEIKSSASTKGPSVFPLAPSSKSTSGGTAALGCLVKDYFPEPVTVSWNSGALTSGVHTFPAVLQSSGLYSLSSVVTVPSSSLGTQTYICNVNHKPSNTKVDKKVEPKSCDKTHTCPPCPAPEAAGGPSVFLFPPKPKDTLMISRTPEVTCVVVDVSHEDPEVKFNWYVDGVEVHNAKTKPREEQYASTYRVVSVLTVLHQDWLNGKEYKCKVSNKALPAPIEKTISKAKGQPREPQVCTLPPSRDELTKNQVSLWCLVKGFYPSDIAVEWESNGQPENNYKTTPPVLDSDGSFFLYSKLTVDKSRWQQGNVFSCSVMHEALHNHYTQKSLSLSPHHHHHHHH
chain 2: QVQLVQSGAEVKKPGASVKVSCKASGYTFTDYEMHWIRQPPGQGLEWIGAIDPKTGDTAYSQKFKGRVTLTADKSTSTAYMELSSLTSEDTAVYYCTRFYSYTYWGQGTLVTVSSASVAAPSVFIFPPSDEQLKSGTASVVCLLNNFYPREAKVQWKVDNALQSGNSQESVTEQDSKDSTYSLSSTLTLSKADYEKHKVYACEVTHQGLSSPVTKSFNRGEC
B4 returned a Kd in assay [2] of 16.9 nM.
